Measurements reported in article doi:10.1101/2021.02.18.431817.
Read-outs that look alike come from different tables or passages of the source.

Key:
Assay in all cases: EMSA
AtGAPC1 [1] = target: T1, AtGAPC1 (Arabidopsis thaliana, UniProt P25858 1-338)
AtGAPC2 = AtGAPC2 (Arabidopsis thaliana, UniProt Q9FX54 1-338)
GAPDH from rabbit muscle = GAPDH from rabbit muscle (rabbit, UniProt P46406 1-333)
AtGAPC1 [2] = target: T1, AtGAPC1; remark: listed apart in the source

T1 sequence (P25858 whole entry): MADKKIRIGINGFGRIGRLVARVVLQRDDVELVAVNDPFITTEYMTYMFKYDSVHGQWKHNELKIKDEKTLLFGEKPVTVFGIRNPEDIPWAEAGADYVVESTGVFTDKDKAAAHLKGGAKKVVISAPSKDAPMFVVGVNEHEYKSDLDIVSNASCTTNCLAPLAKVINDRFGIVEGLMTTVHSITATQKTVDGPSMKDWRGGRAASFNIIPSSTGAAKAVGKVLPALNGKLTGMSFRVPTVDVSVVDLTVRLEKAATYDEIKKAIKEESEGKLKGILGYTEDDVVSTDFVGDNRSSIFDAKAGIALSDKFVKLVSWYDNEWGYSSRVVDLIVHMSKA
Chain of AtGAPC2 (Q9FX54 whole entry): as the sequence (P25858 whole entry) above, with N61H, I65V, E68D, A92G, Y98F, A227S, L274M counted along it
Chain of GAPDH from rabbit muscle (P46406 whole entry): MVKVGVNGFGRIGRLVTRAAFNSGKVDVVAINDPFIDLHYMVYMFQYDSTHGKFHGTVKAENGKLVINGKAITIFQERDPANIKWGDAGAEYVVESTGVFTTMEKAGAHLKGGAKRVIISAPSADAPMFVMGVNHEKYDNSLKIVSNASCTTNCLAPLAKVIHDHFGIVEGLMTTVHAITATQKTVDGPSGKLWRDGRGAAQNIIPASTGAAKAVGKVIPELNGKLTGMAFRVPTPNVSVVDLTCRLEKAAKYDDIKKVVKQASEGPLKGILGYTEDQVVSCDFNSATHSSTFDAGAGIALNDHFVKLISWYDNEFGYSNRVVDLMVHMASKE

AUAUAUUCUCCGGAGAA (ssRNA) [M1-RNA (consensus)]: binds (AtGAPC1 [1]).

UUAGCGUUUUAAUGUUGAGUGAGUAAGUUAAGGGGUU (ssRNA) [Random RNA (AT5G16470 5'-UTR, mutated M2)]: no binding (AtGAPC1 [1]).

AUAUAUGAGAUUAGGGUUU (ssRNA) [M2-RNA (consensus)]: binds (AtGAPC1 [1]).

ACCAGAUUUUUUUCGCCGGAGUUUGUUUUGAUCCA (ssRNA) [SAP3 M1]: binds (AtGAPC2); binds (GAPDH from rabbit muscle); binds (AtGAPC1 [2]).
